Assay [1] deals with T1, human IL-17 (human, UniProt Q16552 20-155, limits assumed).
T1 sequence: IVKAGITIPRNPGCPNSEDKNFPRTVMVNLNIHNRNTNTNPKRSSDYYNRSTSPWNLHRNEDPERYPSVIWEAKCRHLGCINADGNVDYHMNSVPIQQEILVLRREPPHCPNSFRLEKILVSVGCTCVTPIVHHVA
Put plainly: cell-based or functional assay.

The target in a further assay is T2, human IL-17F (human, UniProt Q96PD4 31-163).
T2 sequence (looked up): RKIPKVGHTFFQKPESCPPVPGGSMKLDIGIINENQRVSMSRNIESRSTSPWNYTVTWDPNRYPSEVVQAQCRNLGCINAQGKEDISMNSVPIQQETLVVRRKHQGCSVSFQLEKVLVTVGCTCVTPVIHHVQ
As to the kind of experiment: ELISA, antigen coated on plate.

In the next assay the target is T3, human IL-22 (human, UniProt Q9GZX6 34-179).
T3 construct: Negative control antigen
T3 sequence (looked up): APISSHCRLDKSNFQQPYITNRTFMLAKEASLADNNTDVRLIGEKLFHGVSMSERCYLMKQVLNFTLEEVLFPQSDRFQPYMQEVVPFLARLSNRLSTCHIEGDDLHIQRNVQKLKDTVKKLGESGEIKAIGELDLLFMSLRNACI
Put plainly: ELISA, antigen coated on plate.

For a further assay, the target named is T4, mouse IL-17 (murine, UniProt Q62386 26-158, limits assumed).
T4 construct: also called murine IL-17
T4 sequence: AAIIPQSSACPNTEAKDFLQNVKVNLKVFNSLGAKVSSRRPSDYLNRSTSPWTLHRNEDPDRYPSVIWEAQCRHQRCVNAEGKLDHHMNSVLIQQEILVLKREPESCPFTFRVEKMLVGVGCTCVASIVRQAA
As to the kind of experiment: ELISA, antigen coated on plate.

A further assay concerns the target T5, human IL-17B (human, UniProt Q9UHF5 21-180).
T5 sequence (looked up): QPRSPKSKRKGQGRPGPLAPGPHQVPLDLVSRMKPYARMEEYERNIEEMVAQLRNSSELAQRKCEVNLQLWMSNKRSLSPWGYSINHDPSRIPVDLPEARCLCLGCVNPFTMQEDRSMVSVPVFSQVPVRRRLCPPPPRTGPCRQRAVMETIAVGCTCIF
As to the kind of experiment: ELISA, antigen coated on plate.

For the next assay, the target named is T6, human IL-17C (human, UniProt Q9P0M4 19-197).
T6 sequence (looked up): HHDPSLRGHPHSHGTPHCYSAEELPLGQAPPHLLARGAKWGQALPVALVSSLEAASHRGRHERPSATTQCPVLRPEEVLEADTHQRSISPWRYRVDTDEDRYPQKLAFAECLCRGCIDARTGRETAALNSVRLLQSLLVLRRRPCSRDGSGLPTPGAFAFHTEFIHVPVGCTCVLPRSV
As to the kind of experiment: ELISA, antigen coated on plate.

In another assay the target is T7, human IL-17D (human, UniProt Q8TAD2 18-202, limits assumed).
T7 sequence (looked up): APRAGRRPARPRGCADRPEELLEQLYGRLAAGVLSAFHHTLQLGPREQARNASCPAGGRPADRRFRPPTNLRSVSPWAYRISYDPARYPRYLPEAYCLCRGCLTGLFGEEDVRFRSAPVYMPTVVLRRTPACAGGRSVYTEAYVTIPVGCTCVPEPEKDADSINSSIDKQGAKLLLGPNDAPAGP
As to the kind of experiment: ELISA, antigen coated on plate.

For the next assay, the target named is T8, human IL-17E (human, UniProt Q9H293 33-177).
T8 sequence (looked up): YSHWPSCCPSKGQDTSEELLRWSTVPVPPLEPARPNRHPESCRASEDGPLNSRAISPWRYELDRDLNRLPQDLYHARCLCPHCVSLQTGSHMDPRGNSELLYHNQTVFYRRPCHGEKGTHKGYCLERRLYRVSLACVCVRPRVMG
Put plainly: ELISA, antigen coated on plate.

Assay [2] concerns the target T1, human IL-17. As to the kind of experiment: SPR (BIACORE 2000), mAb captured on Protein A, IL-17 injected, 25 C, 1:1 with mass transfer model.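 Note: CM4 chip with immobilized Protein A, HBS-EP running buffer pH 7.4, IL-17 titrated downward from 10 nM in twofold steps, 20 min dissociation phase.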
Procedure: (§1) A BIACORE® 2000 instrument is used to measure antigen-antibody binding kinetics and affinity. The instrument utilizes the optical properties of surface plasmon resonance to detect alteration in protein concentration of interacting molecules within a dextran biosensor matrix. Except as noted, all reagents and materials are purchased from BIACORE® AB. All measurements are performed at 25° C. Samples are resuspended in HBS-EP buffer to a final concentration of 2 μg/ml (150 mM sodium chloride, 3 mM EDTA, 0.005% (w/v) surfactant P-20, and 10 mM HEPES, pH 7.4). Protein A is immobilized on flow cells 1 to 4 of a CM4 sensor chip at a level of 500 response units using an amine coupling kit.
(§2) Binding is evaluated using multiple analytical cycles. […] Association and dissociation rates for each cycle are evaluated using a “1:1 with mass transfer” binding model in the BIAevaluation software.
The next assay addresses T9, cynomolgus monkey IL-17 (cynomolgus monkey, UniProt Q16552 24-155 (human entry), limits assumed).
T9 construct: Not commercially available; cloned and expressed; also called CYNO IL-17
T9 chain: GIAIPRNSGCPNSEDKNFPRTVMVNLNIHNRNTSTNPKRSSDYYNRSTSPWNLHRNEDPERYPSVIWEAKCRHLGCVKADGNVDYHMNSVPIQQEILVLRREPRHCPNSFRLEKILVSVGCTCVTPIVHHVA
The description is as above.

Assay [3] has as its target New Zealand white rabbit IL-17 (rabbit). Put plainly: SPR (BIACORE 2000), mAb captured on Protein A; biphasic, heterogeneous ligand model, first of two affinities.
The target is the same in assay [4]. As to the kind of experiment: SPR (BIACORE 2000), mAb captured on Protein A; biphasic, heterogeneous ligand model, second of two affinities.

Sequence of New Zealand white rabbit IL-17 (rabbit) (chain, as listed by the source limits assumed, form in doubt): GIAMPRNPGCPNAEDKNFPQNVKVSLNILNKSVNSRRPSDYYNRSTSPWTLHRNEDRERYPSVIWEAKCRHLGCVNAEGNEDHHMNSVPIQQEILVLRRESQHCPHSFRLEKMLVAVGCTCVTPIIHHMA
Procedure for cynomolgus monkey IL-17: as §1, §2
Procedure for human IL-17B: (§3) In an exemplary assay, ELISA plate wells (Nunc Immuno Maxisorp) are coated with 100 μl (0.5 ng/ml in 1× coating buffer (BioFx)) of IL-17 family member proteins (R&D Systems) sealed and incubated overnight at 4° C. The solution in the well is removed by flicking and blocking buffer (200 μl 1.5% BSA in PBS) is added. The plates are incubated on a rotating shaker for 30 minutes at room temperature. Then 100 μl of an antibody to be tested is added per well at varying concentrations (e.g., 2, 0.4, 0.08, 0.016, 0.0032 and 0 μg/ml). The plates are again incubated overnight (4° C.) followed by warming on a rotating shaker (60 min room temp). Each plate-well is then washed five times with buffer (1× Ish buffer, BioFX). After washing, an appropriate commercially available HRP-conjugated secondary antibody (1:2000 in PBS with 1.5% BSA) is added (100 μl/well). Plates are re-incubated on a rotating shaker (60 min. room temp.) followed by buffer washing (5×) as described above. The colorimetric signal is developed by adding TMB (100 μl/well) until saturation (approx 3-5 min.) then further development is ended by adding stop solution (100 μl/well, BioFX). The color signal is measured at 450 nm absorbance using any appropriate ELISA plate reader. The degree of binding is proportional to color signal production.
Procedure for human IL-17D: as §3
Procedure for human IL-17E: as §3
Procedure for human IL-17F: as §3
Procedure for human IL-22: as §3
Procedure for mouse IL-17: as §3

With IgG4 negative control (antibody), in the assay with human IL-17 [1], the AVG GROα, pg/ml at 2.56 pM antibody (60 ng/ml IL-17, HT-29 cells) turned out to be 1240 pg/ml; the AVG GROα, pg/ml at 12.8 pM antibody (60 ng/ml IL-17, HT-29 cells) worked out at 1350 pg/ml; the AVG GROα, pg/ml at 64.0 pM antibody (60 ng/ml IL-17, HT-29 cells) was found to be 1380 pg/ml; the AVG GROα, pg/ml at 320.0 pM antibody (60 ng/ml IL-17, HT-29 cells) amounted to 1390 pg/ml. In the assay with human IL-17 [1], this molecule displayed an AVG GROα, pg/ml at 1,600.0 pM antibody (60 ng/ml IL-17, HT-29 cells) of 1370 pg/ml; an AVG GROα, pg/ml at 8,000.0 pM antibody (60 ng/ml IL-17, HT-29 cells) of 1420 pg/ml; an AVG GROα, pg/ml at 40,000.0 pM antibody (60 ng/ml IL-17, HT-29 cells) of 1300 pg/ml.

B1: Fab 121 (Fab, V domains shown)
VH: QVQLVQSGAEVKKPGSSVKVSCKASGYSFTDYHISWVRQAPGQGLEWMGVINPEYGTTDYNQRFKGRVTITADESTSTAYMELSSLRSEDTAVYYCARYDYFTGTGAYWGQGTLVTVSS
VL: DIVMTQTPLSLSVTPGQPASISCRSSQSLKHSRGNTFLHWYLQKPGQSPQLLIYKVSNRFIGVPDRFSGSGSGTDFTLKISRVEAEDVGVYYCSQSTHYPFTFGQGTKLEIK
notes: constant domains are not specified
With B1, the binding result with human IL-17F, with human IL-22, with mouse IL-17, in the assay with human IL-17B, in the assay with human IL-17C and with human IL-17D was “no binding” each time. In addition, in the assay with human IL-17E, the binding result is listed as “no binding”.

B2: mAb 131 (full-length, IgG4 Fc region) (antibody, V domains shown)
VH: QVQLVQSGAEVKKPGSSVKVSCKASGYSFTDYHIHWVRQAPGQGLEWMGVINPEYGTTDYNQRFKGRVTITADESTSTAYMELSSLRSEDTAVYYCARYDYFTGTGVYWGQGTLVTVSS
VL: DIVMTQTPLSLSVTPGQPASISCRSSKSLVHSRGNTYLHWYLQKPGQSPQLLIYKVSNRFIGVPDRFSGSGSGTDFTLKISRVEAEDVGVYYCSQSTHYPFTFGQGTKLEIK
B2: in the assay with human IL-17 [2], the Kd came out at 2.9 pM, the koff is 1.6e-05 s⁻¹ and the kon was found to be 5.4e+06 M⁻¹ s⁻¹.

B3: mAb 126 (full-length, IgG4 Fc region) (antibody, V domains shown)
VH: QVQLVQSGAEVKKPGSSVKVSCKASGYSFTDYHIHWVRQAPGQGLEWMGVINPMYGTTDYNQRFKGRVTITADESTSTAYMELSSLRSEDTAVYYCARYDYFTGTGVYWGQGTLVTVSS
VL: DIVMTQTPLSLSVTPGQPASISCRSSRSLVHSRGNTYLHWYLQKPGQSPQLLIYKVSNRFIGVPDRFSGSGSGTDFTLKISRVEAEDVGVYYCSQSTHLPFTFGQGTKLEIK
notes: Full-length mAb with an IgG4 Fc region
Turning to B3, the “IC50, IL-17-induced GROα secretion from HT-29 cells” value with human IL-17 [1] is around 560 pM. Further, the affinity in the assay with cynomolgus monkey IL-17, expressed as Kd, was 0.8 pM.

B4: mAb 103 (full-length, IgG4 Fc region) (antibody, V domains shown)
VH: QVQLVQSGAEVKKPGSSVKVSCKASGYSFTDYHIHWVRQAPGQGLEWMGVINPEYGTTDYNQRFKGRVTITADESTSTAYMELSSLRSEDTAVYYCARYDYFTGTGAYWGQGTLVTVSS
VL: DIVMTQTPLSLSVTPGQPASISCRSSQSLRHSRGNTYLHWYLQKPGQSPQLLIYKVSNIFSGVPDRFSGSGSGTDFTLKISRVEAEDVGVYYCSQSTHYPFTFGQGTKLEIK
notes: also called full-length mAb 103
Regarding B4, the Kd in assay [3] came out at 2000 pM; in the assay with human IL-17 [2], 1.4 pM; with cynomolgus monkey IL-17 it was 1.3 pM; in assay [4] it was 18100 pM. Also, the koff in [3] was found to be 0.00036 s⁻¹; with human IL-17 [2] it was 1.5e-05 s⁻¹; with cynomolgus monkey IL-17, 1.1e-05 s⁻¹; in [4], 0.192 s⁻¹. In addition, the kon in assay [3] was found to be 180000 M⁻¹ s⁻¹; with human IL-17 [2] it was 1.1e+07 M⁻¹ s⁻¹; with cynomolgus monkey IL-17 it was 8.8e+06 M⁻¹ s⁻¹; in assay [4] it was 1.06e+07 M⁻¹ s⁻¹.

B5: mAb 104 (full-length, IgG4 Fc region) (antibody, V domains shown)
VH: QVQLVQSGAEVKKPGSSVKVSCKASGYSFTDYHIHWVRQAPGQGLEWMGVINPEYGTTDYNQRFKGRVTITADESTSTAYMELSSLRSEDTAVYYCARYDYFTGTGAYWGQGTLVTVSS
VL: DIVMTQTPLSLSVTPGQPASISCRSSKSLVHSRGNTFLHWYLQKPGQSPQLLIYKVSTRFSGVPDRFSGSGSGTDFTLKISRVEAEDVGVYYCSQSTHYPFTFGQGTKLEIK
notes: also called full-length mAb 104
In the case of B5, the Kd in assay [3] amounted to 1900 pM; in the assay with human IL-17 [2], 1.7 pM; with cynomolgus monkey IL-17, 0.5 pM; in assay [4], 20000 pM. Also, the koff came to 0.00018 s⁻¹ in [3], 1.1e-05 s⁻¹ with human IL-17 [2], 5e-06 s⁻¹ with cynomolgus monkey IL-17 and 0.07 s⁻¹ in [4]. The kon in assay [3] is 100000 M⁻¹ s⁻¹; in the assay with human IL-17 [2], 7.7e+06 M⁻¹ s⁻¹; with cynomolgus monkey IL-17 it was 9.4e+06 M⁻¹ s⁻¹; in assay [4], 4e+06 M⁻¹ s⁻¹.

B6: mAb 118 (full-length, IgG4 Fc region) (antibody, V domains shown)
VH: QVQLVQSGAEVKKPGSSVKVSCKASGYSFTDYHISWVRQAPGQGLEWMGVINPMYGTTDYNQRFKGRVTITADESTSTAYMELSSLRSEDTAVYYCARYDYYTGTGVYWGQGTLVTVSS
VL: DIVMTQTPLSLSVTPGQPASISCRSSQSLVHSRGNTFLHWYLQKPGQSPQLLIYKVSNRFIGVPDRFSGSGSGTDFTLKISRVEAEDVGVYYCSQSTHYPFTFGQGTKLEIK
With B6, in the assay with human IL-17 [2], the Kd worked out at 3.9 pM, the koff was determined as 2e-05 s⁻¹ and the kon is 5e+06 M⁻¹ s⁻¹.

B7: mAb 121 (full-length, IgG4 Fc region) (antibody, V domains shown)
VH: QVQLVQSGAEVKKPGSSVKVSCKASGYSFTDYHISWVRQAPGQGLEWMGVINPEYGTTDYNQRFKGRVTITADESTSTAYMELSSLRSEDTAVYYCARYDYFTGTGAYWGQGTLVTVSS
VL: DIVMTQTPLSLSVTPGQPASISCRSSQSLKHSRGNTFLHWYLQKPGQSPQLLIYKVSNRFIGVPDRFSGSGSGTDFTLKISRVEAEDVGVYYCSQSTHYPFTFGQGTKLEIK
notes: as for B3
Consider B7, for which, in the assay with human IL-17 [1], the “decrease of the mean mouse KC level after human IL-17 injection in mice, 20 µg/mouse, compared to a control antibody” value is around 3 fold. For the same molecule, the Kd in assay [3] was determined as 510 pM; with human IL-17 [2] it was 1.6 pM; with cynomolgus monkey IL-17, 1.1 pM; in assay [4] it was 1500 pM. In addition, the koff in [3] was 0.0004 s⁻¹; with human IL-17 [2], 1.5e-05 s⁻¹; with cynomolgus monkey IL-17 it was 7e-06 s⁻¹; in assay [4], 0.021 s⁻¹. In addition, the kon was 800000 M⁻¹ s⁻¹ in assay [3], 1e+07 M⁻¹ s⁻¹ with human IL-17 [2], 7.8e+06 M⁻¹ s⁻¹ with cynomolgus monkey IL-17 and 1.7e+07 M⁻¹ s⁻¹ in assay [4].

B8: Fab 126 (Fab, V domains shown)
VH: QVQLVQSGAEVKKPGSSVKVSCKASGYSFTDYHIHWVRQAPGQGLEWMGVINPMYGTTDYNQRFKGRVTITADESTSTAYMELSSLRSEDTAVYYCARYDYFTGTGVYWGQGTLVTVSS
VL: DIVMTQTPLSLSVTPGQPASISCRSSRSLVHSRGNTYLHWYLQKPGQSPQLLIYKVSNRFIGVPDRFSGSGSGTDFTLKISRVEAEDVGVYYCSQSTHLPFTFGQGTKLEIK
notes: as for B1
For the molecule B8, the binding result with human IL-22, with mouse IL-17, with human IL-17B, with human IL-17C, with human IL-17D and with human IL-17E was “no binding” in each case.

Values taken from patent US20110027290A1 (Eli Lilly, published 2011).
